Data published in US20200165325A1.
Read-outs that look alike come from different tables or passages of the source.

Assays:
[1] = molecular target: HIV-1 Env of strain CAP210.2.00.E8 (HIV-1)
[2] = molecular target: HIV-1 Env of strain Du172.17 (HIV-1)
[3] = molecular target: HIV-1 Env of strain SC422661.8 (HIV-1)
[4] = molecular target: HIV-1 Env of strain TRO.11 (HIV-1)
[5] = molecular target: HIV-1 Env of strain CAP45.2.00.G3 (HIV-1)
[6] = molecular target: HIV-1 Env of strain AC10.0.29 (HIV-1)
[7] = molecular target: Env (gp120) of HIV-1 strain SC422661.8 (HIV-1)
[8] = molecular target: Env (gp120) of HIV-1 strain CAP210.2.00.E8 (HIV-1)
[9] = molecular target: Env (gp120) of HIV-1 strain Du172.17 (HIV-1)
[10] = molecular target: Env (gp120) of HIV-1 strain CAP45.2.00.G3 (HIV-1)
[11] = molecular target: Env (gp120) of HIV-1 strain AC10.0.29 (HIV-1)
[12] = molecular target: Env (gp120) of HIV-1 strain TRO.11 (HIV-1)
[13] = molecular target: Env (gp120) of HIV-1 strain SC422661.8 (HIV-1); remark: listed apart in the source
[14] = molecular target: Env (gp120) of HIV-1 strain CAP45.2.00.G3 (HIV-1); remark: listed apart in the source
[15] = molecular target: Env (gp120) of HIV-1 strain AC10.0.29 (HIV-1); remark: listed apart in the source
[16] = molecular target: Env (gp120) of HIV-1 strain TRO.11 (HIV-1); remark: listed apart in the source
[17] = molecular target: Env (gp120) of HIV-1 strain QH0692.42 (HIV-1)
[18] = molecular target: Env (gp120) of HIV-1 strain ZM214M.PL15 (HIV-1)
[19] = molecular target: Env (gp120) of HIV-1 strain T257-31 (HIV-1)
[20] = molecular target: HIV-1 Env of strain QH0692.42 (HIV-1)
[21] = molecular target: HIV-1 Env of strain SC422661.8 (HIV-1); remark: listed apart in the source
[22] = molecular target: HIV-1 Env of strain TRO.11 (HIV-1); remark: listed apart in the source
[23] = molecular target: HIV-1 Env of strain ZM214M.PL15.11 (HIV-1)
[24] = molecular target: HIV-1 Env of strain CAP45.2.00.G3 (HIV-1); remark: listed apart in the source
[25] = molecular target: HIV-1 Env of strain T257-31 (HIV-1)
[26] = molecular target: HIV-1 Env of strain AC10.0.29 (HIV-1); remark: listed apart in the source
[27] = molecular target: Env (gp120) of HIV-1 strain 3016.v5.c45 (HIV-1)
[28] = molecular target: Env (gp120) of HIV-1 strain C2101.c01 (HIV-1)

## 3BNC55 T54W IgG (antibody)
[1]
  In vitro neutralization IC50: > 50 µg/mL
[2]
  In vitro neutralization IC50: > 50 µg/mL
[3]
  In vitro neutralization IC50: 0.6 µg/mL
[4]
  In vitro neutralization IC50: > 50 µg/mL
[5]
  In vitro neutralization IC50: > 50 µg/mL
[6]
  In vitro neutralization IC50: > 50 µg/mL

## 3BNC60 T54W IgG (antibody)
[1]
  In vitro neutralization IC50: 5 µg/mL
[2]
  In vitro neutralization IC50: 0.04 µg/mL
[3]
  In vitro neutralization IC50: 0.1 µg/mL
[4]
  In vitro neutralization IC50: 0.06 µg/mL
[5]
  In vitro neutralization IC50: 19 µg/mL
[6]
  In vitro neutralization IC50: 3.1 µg/mL

## 3BNC117 T54W IgG (antibody)
[1]
  In vitro neutralization IC50: 2.8 µg/mL
[2]
  In vitro neutralization IC50: 0.9 µg/mL
[3]
  In vitro neutralization IC50: 0.07 µg/mL
[4]
  In vitro neutralization IC50: 0.6 µg/mL
[5]
  In vitro neutralization IC50: 23 µg/mL
[6]
  In vitro neutralization IC50: 2.8 µg/mL

## 12A12 Y54W IgG (antibody)
[1]
  In vitro neutralization IC50: > 50 µg/mL
[2]
  In vitro neutralization IC50: 0.1 µg/mL
[3]
  In vitro neutralization IC50: 0.2 µg/mL
[4]
  In vitro neutralization IC50: 0.2 µg/mL
[5]
  In vitro neutralization IC50: 0.2 µg/mL
[6]
  In vitro neutralization IC50: 0.5 µg/mL

## NIH45-46 G54H IgG (antibody)
[7]
  neutralization IC50: 0.09 µg/mL
[8]
  neutralization IC50: > 50 µg/mL
[9]
  neutralization IC50: > 50 µg/mL
[10]
  neutralization IC50: > 50 µg/mL
[11]
  neutralization IC50: 0.6 µg/mL
[12]
  neutralization IC50: 0.2 µg/mL

## NIH45-46 G54I IgG (antibody)
[7]
  neutralization IC50: 0.1 µg/mL
[8]
  neutralization IC50: > 50 µg/mL
[9]
  neutralization IC50: > 50 µg/mL
[10]
  neutralization IC50: > 50 µg/mL
[11]
  neutralization IC50: 8.6 µg/mL
[12]
  neutralization IC50: 10 µg/mL

## NIH45-46 G54L IgG (antibody)
[7]
  neutralization IC50: 0.1 µg/mL
[8]
  neutralization IC50: > 50 µg/mL
[9]
  neutralization IC50: > 50 µg/mL
[10]
  neutralization IC50: > 50 µg/mL
[11]
  neutralization IC50: 1.7 µg/mL
[12]
  neutralization IC50: 0.3 µg/mL

## NIH45-46 G54M IgG (antibody)
[7]
  neutralization IC50: 0.06 µg/mL
[8]
  neutralization IC50: > 50 µg/mL
[9]
  neutralization IC50: > 50 µg/mL
[10]
  neutralization IC50: > 50 µg/mL
[11]
  neutralization IC50: 1.5 µg/mL
[12]
  neutralization IC50: 0.3 µg/mL

## NIH45-46 Y99dA (antibody)
[13]
  neutralization IC50: 0.08 µg/mL
[14]
  neutralization IC50: > 50 µg/mL
[15]
  neutralization IC50: 4.4 µg/mL
[16]
  neutralization IC50: > 50 µg/mL
[17]
  neutralization IC50: 2.1 µg/mL
[18]
  neutralization IC50: 1.1 µg/mL
[19]
  neutralization IC50: 2.4 µg/mL

## NIH45-46 heavy chain paired with VRC01 light chain, IgG (antibody)
[20]
  In vitro neutralization IC50: 0.9 µg/mL
[21]
  In vitro neutralization IC50: 0.2 µg/mL
[22]
  In vitro neutralization IC50: 0.3 µg/mL
[23]
  In vitro neutralization IC50: 0.6 µg/mL
[24]
  In vitro neutralization IC50: 2.1 µg/mL
[25]
  In vitro neutralization IC50: 0.6 µg/mL
[26]
  In vitro neutralization IC50: 1 µg/mL

## NIH45-46 Δ99a-99d (antibody)
[13]
  neutralization IC50: 1.4 µg/mL
[14]
  neutralization IC50: > 50 µg/mL
[15]
  neutralization IC50: 13 µg/mL
[16]
  neutralization IC50: > 50 µg/mL
[17]
  neutralization IC50: 3.7 µg/mL
[18]
  neutralization IC50: 2.2 µg/mL
[19]
  neutralization IC50: 7 µg/mL

## VRC01 (antibody)
[27]
  neutralization IC50: 0.16 µg/mL
[28]
  neutralization IC50: 0.36 µg/mL

## VRC01 IgG (antibody)
[20]
  In vitro neutralization IC50: 0.7 µg/mL
[21]
  In vitro neutralization IC50: 0.2 µg/mL
[22]
  In vitro neutralization IC50: 0.5 µg/mL
[23]
  In vitro neutralization IC50: 0.8 µg/mL
[24]
  In vitro neutralization IC50: 1.8 µg/mL
[26]
  In vitro neutralization IC50: 0.8 µg/mL

## VRC01 heavy chain paired with NIH45-46 light chain, IgG (antibody)
[20]
  In vitro neutralization IC50: 1.2 µg/mL
[21]
  In vitro neutralization IC50: 0.4 µg/mL
[22]
  In vitro neutralization IC50: 24 µg/mL
[23]
  In vitro neutralization IC50: 1.8 µg/mL
[24]
  In vitro neutralization IC50: > 50 µg/mL
[25]
  In vitro neutralization IC50: 15 µg/mL
[26]
  In vitro neutralization IC50: 4.5 µg/mL

B1: 3BNC55 IgG (wild type) (antibody, V domains shown)
VH: QVQLVQSGTAVKRPGASVRVSCQASGYTFTDYFIYWWRQAPGQGLEWLGWINPLTSQPSYPSRFQGRLTLTRDTFDEMLYMDLRGLRSDDTGIYFCARRHSDYCDFDIWGSGTQIIVSS
VL: DIQMTQSPSSLSASVGDKVTITCQTSAGYLNWYQQRRGRAPKLLMYDGSRLVTGVPSRFSGRRWGTQYNLTIGSLQPEDIATYYCQVYEFFGPGTRLDLKS
[1]
  In vitro neutralization IC50: > 50 µg/mL
[2]
  In vitro neutralization IC50: 2 µg/mL
[3]
  In vitro neutralization IC50: 0.3 µg/mL
[4]
  In vitro neutralization IC50: 7.6 µg/mL
[5]
  In vitro neutralization IC50: > 50 µg/mL
[6]
  In vitro neutralization IC50: > 50 µg/mL

B2: 3BNC60 IgG (wild type) (antibody)
heavy: QVHLSQSGAAVTKPGASVRVSCEASGYKISDHFIHWWRQAPGQGLQWVGWINPKTGQPNNPRQFQGRVSLTRQASWDFDTYSFYMDLKAVRSDDTAIYFCARQRSDFWDFDVWGSGTQVTVSS
light: DIQMTQSPSSLSARVGDTVTITCQANGYLNWYQQRRGKAPKLLIYDGSKLERGVPARFSGRRWGQEYNLTINNLQPEDVATYFCQVYEFIVPGTRLDLKRTVA
[1]
  In vitro neutralization IC50: 4.7 µg/mL
[2]
  In vitro neutralization IC50: 0.05 µg/mL
[3]
  In vitro neutralization IC50: 0.1 µg/mL
[4]
  In vitro neutralization IC50: 0.07 µg/mL
[5]
  In vitro neutralization IC50: 10 µg/mL
[6]
  In vitro neutralization IC50: 13 µg/mL

B3: 3BNC117 IgG (wild type) (antibody)
heavy: QVQLLQSGAAVTKPGASVRVSCEASGYNIRDYFIHWWRQAPGQGLQWVGWINPKTGQPNNPRQFQGRVSLTRHASWDFDTFSFYMDLKALRSDDTAVYFCARQRSDYWDFDVWGSGTQVTVSS
light: DIQMTQSPSSLSASVGDTVTITCQANGYLNWYQQRRGKAPKLLIYDGSKLERGVPSRFSGRRWGQEYNLTINNLQPEDIATYFCQVYEFVVPGTRLDLKRTVA
[1]
  In vitro neutralization IC50: 11 µg/mL
[2]
  In vitro neutralization IC50: 0.04 µg/mL
[3]
  In vitro neutralization IC50: 0.07 µg/mL
[4]
  In vitro neutralization IC50: 0.6 µg/mL
[5]
  In vitro neutralization IC50: 16 µg/mL
[6]
  In vitro neutralization IC50: 6.5 µg/mL

B4: 12A12 IgG (wild type) (antibody, V domains shown)
VH: SQHLVQSGTQVKKPGASVRISCQASGYSFTDYVLHWWRQAPGQGLEWMGWIKPVYGARNYARRFQGRINFDRDIYREIAFMDLSGLRSDDTALYFCARDGSGDDTSWHLDPWGQGTLVIVSA
VL: DIQMTQSPSSLSASVGDRVTITCQAGQGIGSSLQWYQQKPGKAPKLLVHGASNLHRGVPSRFSGSGFHTTFSLTISGLQRDDFATYFCAVLEFFGPGTKVEIKR
[1]
  In vitro neutralization IC50: > 50 µg/mL
[2]
  In vitro neutralization IC50: 0.2 µg/mL
[3]
  In vitro neutralization IC50: 0.2 µg/mL
[4]
  In vitro neutralization IC50: 0.3 µg/mL
[5]
  In vitro neutralization IC50: 0.4 µg/mL
[6]
  In vitro neutralization IC50: 0.6 µg/mL
